Positions count from the first letter of the chain named.
B1: SB24alt1-1 (designed binder)
chain: ASGMLAISMDTDKISNSFEDCKYFQLYVLSAGWTNTIFNDESGKEEIVKMSVDAIICKNISEENYKKFSKKIEIYHAEGDDVDKNISLFLEGELSKISNP
B2: SB24solo2 (designed binder)
chain: B1 chain with Q25L, L26I, Y27E, V28L, L29K, S51G, D83N

Biological target: hemagglutinin H1 (A/California/04/2009) (influenza A virus A/California/04/2009 …, UniProt P26140 18-529)
Experiment: yeast surface display titration

Binder | binding result
B1 | no binding
B2 | no binding

— US20170198014A1 (UNIVERSITY WASHINGTON THROUGH ITS CENTER FOR …, published 2017)
